The text below walks through data of patent US20250361299A1 (published 2025).

Assay [1] addresses T1, Human CD3 protein (human, UniProt P07766 23-126).
T1 chain: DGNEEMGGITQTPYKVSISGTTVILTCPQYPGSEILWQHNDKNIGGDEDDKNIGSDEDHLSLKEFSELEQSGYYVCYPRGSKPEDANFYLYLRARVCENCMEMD
Nature of the assay: ELISA; with uPA.

The target of assay [2] is T2, Recombinant human EGFR (human, UniProt P00533 25-645). Kind of assay: ELISA; with uPA.
Assay [3] addresses T1, Human CD3 protein. Nature of the assay: ELISA; without uPA.
In assay [4] the target is T2, Recombinant human EGFR. Kind of assay: ELISA; without uPA.

B1: 1.6.1M-Pa proBiTE after uPA digestion (bispecific antibody)
heavy: SDNHGGGGSEVQLVESGGGLVQPGGSLRLSCAASGFTFNTYAMNWVRQAPGKGLEWVARIRSKYNNYATYYADSVKGRFTISRDDSKNTLYLQMNSLRAEDTAVYYCARHGNFGSSYVSYFAYWGQGTTVTVSSASTKGPSVFPLAPSSKSTSGGTAALGCLVKDYFPEPVTVSWNSGALTSGVHTFPAVLQSSGLYSLSSVVTVPSSSLGTQTYICNVNHKPSNTKVDKKVEPKSCPPCPAPEAAGAPSVFLFPPKPKDTLMISRTPEVTCVVVDVSHEDPEVKFNWYVDGVEVHNAKTKPREEQYNSTYRVVSVLTVLHQDWLNGKEYKCKVSNKALPAPIEKTISKAKGQPREPQVYTLPPSRDELTKNQVSLLCLVKGFYPSDIAVEWESNGQPENNYKTTPPVLDSDGSFFLHSKLTVDKSRWQQGNVFSCSVMHEALHNHYTQKSLSLSPGK
light: QVQLQESGPGLVKPSETLSLTCTVSGGSVSSGDYYWTWIRQSPGKGLEWIGHIYYSGNTNYNPSLKSRLTISIDTSKTQFSLKLSSVTAADTAIYYCVRDRVTGAFDIWGQGTMVTVSSGGGGSGGGGSGGGGSGGGGSDIQMTQSPSSLSASVGDRVTITCQASQDISNYLNWYQQKPGKAPKLLIYDASNLETGVPSRFSGSGSGTDFTFTISSLQPEDIATYFCQHFDHLPLAFGGGTKVEIKGGGGSGGGGSGGGGSGGGGSEIVVTQSPATLSVSPGERATLSCRSSTGAVTTSNYANWVQQKPGQAPRGLIGGANKRAPGVPARFSGSLSGDEATLTISSLQSEDFAVYYCALWYSNLWVFGQGTKLEIKRTVAAPSVFIFPPSDEQLKSGTASVVCLLNNFYPREAKVQWKVDNALQSGNSQESVTEQDSKDSTYSLSSTLTLSKADYEKHKVYACEVTHQGLSSPVTKSFNRGECPPCPAPEAAGAPSVFLFPPKPKDTLMISRTPEVTCVVVDVSHEDPEVKFNWYVDGVEVHNAKTKPREEQYNSTYRVVSVLTVLHQDWLNGKEYKCKVSNKALPAPIEKTISKAKGQPREPQVYTLPPSRDELTKNQVSLLCLVKGFYPSDIAVEWESNGQPENNYKTTPPVLDSDGSFFLHSKLTVDKSRWQQGNVFSCSVMHEALHNHYTQKSLSLSPGK
The EC50 is the concentration that produces a half-maximal response. For B1, the results for the concentration giving a half-maximal response (EC50) in assay [1] and in assay [2] were 0.67 µg/mL and 0.0186 µg/mL, respectively.

B2: 1.4.3M-Pa proBiTE (bispecific antibody)
heavy: QDGNEEMGGIGGGSQDGNEEMGGGGGSGGGSGLSGRSDNHGGSEVQLVESGGGLVQPGGSLRLSCAASGFTFNTYAMNWVRQAPGKGLEWVARIRSKYNNYATYYADSVKGRFTISRDDSKNTLYLQMNSLRAEDTAVYYCARHGNFGSSYVSYFAYWGQGTTVTVSSGGGSSGGGGSGGGGSQVQLQESGPGLVKPSETLSLTCTVSGGSVSSGDYYWTWIRQSPGKGLEWIGHIYYSGNTNYNPSLKSRLTISIDTSKTQFSLKLSSVTAADTAIYYCVRDRVTGAFDIWGQGTMVTVSSASTKGPSVFPLAPSSKSTSGGTAALGCLVKDYFPEPVTVSWNSGALTSGVHTFPAVLQSSGLYSLSSVVTVPSSSLGTQTYICNVNHKPSNTKVDKKVEPKSCPPCPAPEAAGGPSVFLFPPKPKDTLMISRTPEVTCVVVDVSHEDPEVKFNWYVDGVEVHNAKTKPREEQYNSTYRVVSVLTVLHQDWLNGKEYKCKVSNKALPAPIEKTISKAKGQPREPQVYTLPPSRDELTKNQVSLLCLVKGFYPSDIAVEWESNGQPENNYKTTPPVLDSDGSFFLHSKLTVDKSRWQQGNVFSCSVMHEALHNHYTQKSLSLSPGK
light: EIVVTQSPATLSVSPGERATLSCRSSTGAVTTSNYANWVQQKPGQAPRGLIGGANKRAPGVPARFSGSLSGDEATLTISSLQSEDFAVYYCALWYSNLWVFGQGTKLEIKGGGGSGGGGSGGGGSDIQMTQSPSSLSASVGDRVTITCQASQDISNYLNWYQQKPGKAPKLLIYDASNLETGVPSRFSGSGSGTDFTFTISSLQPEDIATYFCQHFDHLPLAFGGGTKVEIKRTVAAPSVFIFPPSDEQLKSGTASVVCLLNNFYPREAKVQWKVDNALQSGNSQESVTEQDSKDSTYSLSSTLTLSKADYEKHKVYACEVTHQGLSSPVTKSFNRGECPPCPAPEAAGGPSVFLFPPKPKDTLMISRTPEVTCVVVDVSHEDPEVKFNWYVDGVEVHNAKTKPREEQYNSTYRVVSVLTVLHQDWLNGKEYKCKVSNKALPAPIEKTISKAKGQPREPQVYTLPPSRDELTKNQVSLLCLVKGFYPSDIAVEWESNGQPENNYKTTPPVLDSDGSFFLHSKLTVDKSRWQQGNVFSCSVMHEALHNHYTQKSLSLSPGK
Consider B2, for which the EC50 was 6.57 µg/mL in assay [3] and 0.244 µg/mL in assay [4].
